The values that follow come from US20140322220A1 (Bayer, published 2014).

Bounds are passed on as bounds.

In one test the target is T1, hFGFR1β-Fc (IIIc) (human, UniProt P11362-14 22-285, limits assumed, biotinylated with biotin-LC-NHS).
T1 construct: Bought, R&D Systems 661-FR
T1 sequence (looked up): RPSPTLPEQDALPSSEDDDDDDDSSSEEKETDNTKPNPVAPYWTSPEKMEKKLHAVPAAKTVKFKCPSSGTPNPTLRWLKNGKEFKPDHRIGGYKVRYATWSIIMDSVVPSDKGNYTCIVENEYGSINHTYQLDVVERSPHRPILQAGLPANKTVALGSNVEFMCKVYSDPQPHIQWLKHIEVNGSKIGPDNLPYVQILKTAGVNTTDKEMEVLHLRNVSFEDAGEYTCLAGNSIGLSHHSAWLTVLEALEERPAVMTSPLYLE
Put plainly: ELISA on coated biotinylated Fc fusion. The method, then: (§1) For the ELISA 96-well plates pre-coated with streptavidin (Pierce, 15500) were coated over night at 4° C. with 1 μg/ml biotinylated protein. Wells coated with biotinylated TRAIL-Fc served as a reference. The next day plates were washed 3 times with PBST, treated with blocking reagent, and washed again 3 times with PBST. 100 μl of purified Fabs (1 μg/ml) were added and incubated for 1 h at r.t. After washing 3 times with PBST, an anti-hIgG (Fab-specific) coupled to HRP (1:2500 diluted; Sigma; A 0293) was added and incubated for 1 h at Lt. Color reaction was developed by addition of 50 μl TMB (Invitrogen, 2023) and stopped after 5-15 min by adding 50 μl H₂SO₄ (Merck, 1120801000). Colorimetric reaction was recorded at […] in a plate reader (Tecan). Wells containing TRAIL-Fc were used as background values and the signal to background ratios were calculated as summarized in Table 4.

The next test concerns the target T2, hFGFR3-Fc (IIIb) (human, UniProt P22607-2 23-377, biotinylated with biotin-LC-NHS).
T2 construct: Bought, R&D Systems 1264-FR
T2 sequence (looked up): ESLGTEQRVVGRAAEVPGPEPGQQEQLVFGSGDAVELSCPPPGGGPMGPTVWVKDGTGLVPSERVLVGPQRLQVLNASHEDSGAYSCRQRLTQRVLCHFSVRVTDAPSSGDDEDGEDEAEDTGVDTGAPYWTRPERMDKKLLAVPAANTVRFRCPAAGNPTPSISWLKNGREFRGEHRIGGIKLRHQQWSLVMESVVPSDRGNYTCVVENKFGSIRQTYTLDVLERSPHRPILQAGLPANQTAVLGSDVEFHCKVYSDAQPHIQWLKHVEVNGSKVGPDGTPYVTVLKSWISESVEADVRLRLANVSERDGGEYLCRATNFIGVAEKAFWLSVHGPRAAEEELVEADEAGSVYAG
Put plainly: ELISA on coated biotinylated Fc fusion. The method, then: as §1
Background: ELISA stands for enzyme-linked immunosorbent assay.

In the next test the target is T3, hFGFR4-Fc (human, UniProt P22455 22-369, biotinylated with biotin-LC-NHS).
T3 construct: Bought, R&D Systems, printed Cat. No. 685-MF
T3 sequence (looked up): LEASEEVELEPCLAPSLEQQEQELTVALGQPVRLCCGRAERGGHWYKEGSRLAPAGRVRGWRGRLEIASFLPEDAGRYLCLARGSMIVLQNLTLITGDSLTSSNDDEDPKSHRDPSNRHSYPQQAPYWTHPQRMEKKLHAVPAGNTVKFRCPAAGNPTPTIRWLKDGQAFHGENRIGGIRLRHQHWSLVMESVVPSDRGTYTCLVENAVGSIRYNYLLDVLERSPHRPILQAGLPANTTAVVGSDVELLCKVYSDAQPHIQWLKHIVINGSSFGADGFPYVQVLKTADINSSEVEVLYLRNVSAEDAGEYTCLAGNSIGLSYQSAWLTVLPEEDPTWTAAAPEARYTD
As to the kind of experiment: ELISA on coated biotinylated Fc fusion. As for the experimental part: as §1

A further test has as its target T4, hFGFR2β-Fc (IIIb) (human, UniProt P21802 22-377, biotinylated with biotin-LC-NHS).
T4 construct: also called FGFR2-2β Fc (IIIb)
T4 chain: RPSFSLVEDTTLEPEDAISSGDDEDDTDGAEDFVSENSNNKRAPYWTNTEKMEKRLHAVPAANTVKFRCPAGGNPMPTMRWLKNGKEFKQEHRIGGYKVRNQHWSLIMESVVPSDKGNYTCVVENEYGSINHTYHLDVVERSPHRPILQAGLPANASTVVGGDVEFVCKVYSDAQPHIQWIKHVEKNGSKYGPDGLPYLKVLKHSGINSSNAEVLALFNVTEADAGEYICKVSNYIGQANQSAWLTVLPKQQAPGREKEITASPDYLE
As to the kind of experiment: ELISA, 1 ug/ml Fab on coated antigen; grade of signal to background (+ 2-3, ++ 3-5, +++ >5). The method, then:
as §1

For a further test, the target named is T5, hFGFR2α-Fc (IIIb) (human, UniProt P21802 22-377, biotinylated with biotin-LC-NHS).
T5 construct: Bought, R&D Systems 663-FR, soluble Fc fusion
T5 chain: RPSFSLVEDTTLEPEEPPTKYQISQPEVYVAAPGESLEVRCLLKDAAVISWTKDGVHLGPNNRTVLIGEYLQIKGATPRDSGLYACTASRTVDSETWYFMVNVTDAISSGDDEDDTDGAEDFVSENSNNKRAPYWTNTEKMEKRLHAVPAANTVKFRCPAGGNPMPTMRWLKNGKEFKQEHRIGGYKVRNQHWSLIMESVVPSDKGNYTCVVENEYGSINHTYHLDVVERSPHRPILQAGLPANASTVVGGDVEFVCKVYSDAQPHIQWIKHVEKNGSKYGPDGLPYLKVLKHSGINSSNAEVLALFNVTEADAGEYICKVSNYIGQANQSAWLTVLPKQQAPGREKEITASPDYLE
The test is described as above. As for the experimental part: as §1

For another test, the target named is T6, mFGFR2β-Fc (IIIb) (murine, UniProt P21803-2 22-263, limits assumed, biotinylated with biotin-LC-NHS).
T6 construct: Bought, R&D Systems 708-MF
T6 sequence (P21803 other isoform, or with tags, fused parts or gaps limits assumed): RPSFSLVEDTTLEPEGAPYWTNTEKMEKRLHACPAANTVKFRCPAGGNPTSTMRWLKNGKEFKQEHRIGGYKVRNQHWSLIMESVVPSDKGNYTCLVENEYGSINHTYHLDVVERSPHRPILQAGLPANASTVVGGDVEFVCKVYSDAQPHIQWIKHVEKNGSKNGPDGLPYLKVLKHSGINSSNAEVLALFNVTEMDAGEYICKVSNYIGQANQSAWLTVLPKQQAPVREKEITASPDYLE
Described as above. As for the experimental part: as §1

Test [1] concerns the target T7, recombinant human FGFR2 (Met 1-Glu 377) with C-terminal polyhistidine tag (human, UniProt P21802 22-377).
T7 construct: The range is that of the expressed DNA and begins at Met 1; also called His-tagged FGFR2; recombinant human FGFR2-IIIc molecule
Put plainly: protein binding ELISA; against TPP-1415. The text has this:
(§2) Two different types of ELISA were used to determine the binding improvement of mutated variants: a) Peptide Binding ELISA: a synthetic peptide comprising the amino acid sequence of the epitope linked C-terminally to a biotinylated lysine […]-Ttds-Lys(Biotin) (peptide sequence derived from SEQ ID NO:63, synthesized by JPT Peptide Technology GmbH, Berlin, Germany), and b) Recombinant Protein Binding ELISA: recombinant human FGFR2 (DNA sequence of human FGFR2 (NP 000132.3) Met 1-Glu 377, fused with a polyhistidine tag at the C-terminus; #10824-1-1081-1, Sin θ Biological Inc., Beijing, China).
(§3) Briefly, in both ELISA formats MTP plates (384 well Maxisorp, Nunc) were coated with 20 μl, anti-human IgG Fc specific (#12136; sigma) at 2.2 μg/ml for 2.5 h at 37° C. in coating buffer (#121125 Candor Bioscience GmbH). […] Anti-FGFR2 variants were immobilized in concentrations of 0.035 μg/ml (peptide based assay) or 0.2 μg/ml (recombinant human FGFR2 protein based assay) in 10% Smart Block in PBST depending on the format and variants to be analyzed by incubation of 20 μl for one hour at 20-22° C. After one washing step using 50 μl PBST, 20 μl quadruplets of the antigen dilution series in 10% SmartBlock in PBST with a maximum concentration of 100 nM were added and incubated for 1 h at 20-22° C. and the washing step was repeated 3 times. For the detection of the biotinylated epitope peptide 20 μl of streptavidine/POD conjugate (# S5512, Sigma) in a 1:1000 dilution in 10% SmartBlock in PBST were applied for one hour at 20-22° C. For the detection of the recombinant FGFR2 protein 20 μl of anti-His/HRP conjugate (#71840, novagen) in a 1:10000 dilution in 10% SmartBlock in PBST were applied for one hour at 20-22° C. After 3 washing steps 20 μl of 10 μM amplex red substrate (# A12222, Invitrogen) in 50 mM Sodium hydrogen phosphate, pH 7.6, were added and the fluorescence signal was detected using a common fluorescence reader, e.g. Tecan M1000. EC50 values were evaluated by fitting the data (Sigmoida) dose-response, variable slope, bottom set to background; GraphPad Prism software).

Test [2] addresses T7, recombinant human FGFR2 (Met 1-Glu 377) …. Put plainly: protein binding ELISA, antibody captured by anti-human IgG Fc, FGFR2-His titrated.
Description: as §2, §3

B1: M048-D01 (soluble Fab) (Fab, V domains shown)
VH: EVQLLESGGGLVQPGGSLRLSCAASGFTFSSYAMSWVRQAPGKGLEWVSAISGSGTSTYYADSVKGRFTISRDNSKNTLYLQMNSLRAEDTAVYYCARVRYNWNHGDWFDPWGQGTLVTVSS
VL: QSVLTQPPSASGTPGQRVTISCSGSSSNIGNNYVSWYQQLPGTAPKLLIYENYNRPAGVPDRFSGSKSGTSASLAISGLRSEDEADYYCSSWDDSLNYWVFGGGTKLTVL
notes: Soluble Fab from E. coli, purified through its His-tag
Turning to B1, the binding result with hFGFR1β-Fc (IIIc), with hFGFR3-Fc (IIIb) and with hFGFR4-Fc was “no binding” in each case. Besides, the “ELISA signal to background ratio” value with hFGFR2β-Fc (IIIb), with hFGFR2α-Fc (IIIb) and with mFGFR2β-Fc (IIIb) was above 5 ratio each time.

B2: TPP-1406 (antibody, human IgG1, lambda, V domains shown)
VH: EVQLLESGGGLVQPGGSLRLSCAASGFTFSHSGMHWVRQAPGKGLEWVAVISYDGSNKYYADSVKGRFTISRDNSKNTLYLQMNSLRAEDTAVYYCAREQPLYDFEYWGQGTLVTVSS
VL: AQSVLTQPPSASGTPGQRVTISCSGSSSNIGDNGVNWYQQLPGTAPKLLIYGASERPSGVPDRFSGSKSGTSASLAISGLRSEDEADYYCAAWDDSLDGWTFGGGTKLTVLG
notes: Matured variant of M047-D08
Regarding B2, the “fold EC50 reduction” value in test [1] stood at 37 fold. For the same molecule, in test [2], the EC50 (usually the concentration giving half of the maximal effect) is 0.22 nM.

B3: TPP-1409 (antibody, human IgG1, lambda, V domains shown)
VH: EVQLLESGGGLVQPGGSLRLSCAASGFTFSTSGMHWVRQAPGKGLEWVAVISYDGSNKYYADSVKGRFTISRDNSKNTLYLQMNSLRAEDTAVYYCARESPGYDFEYWGQGTLVTVSS
VL: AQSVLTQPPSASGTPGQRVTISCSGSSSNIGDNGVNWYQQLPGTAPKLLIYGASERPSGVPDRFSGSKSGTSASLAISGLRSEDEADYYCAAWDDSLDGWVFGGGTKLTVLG
notes: Matured variant of M047-D08
B3: the “fold EC50 reduction” value in test [1] is 3.8 fold. In addition, in test [2], the EC50 was 2.1 nM.

B4: TPP-1412 (antibody, human IgG1, lambda, V domains shown)
VH: EVQLLESGGGLVQPGGSLRLSCAASGFTFSHSGMHWVRQAPGKGLEWVAVISYDGSNKYYADSVKGRFTISRDNSKNTLYLQMNSLRAEDTAVYYCAREAPLYDFEYWGQGTLVTVSS
VL: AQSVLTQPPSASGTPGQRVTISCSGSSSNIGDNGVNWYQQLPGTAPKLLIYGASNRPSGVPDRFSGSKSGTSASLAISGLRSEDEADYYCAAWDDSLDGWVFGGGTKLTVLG
notes: Matured variant of M047-D08
Take B4: the “fold EC50 reduction” value in test [1] came to 28 fold. Further, the EC50 in test [2] stood at 0.29 nM.

B5: TPP-1407 (antibody, human IgG1, lambda, V domains shown)
VH: EVQLLESGGGLVQPGGSLRLSCAASGFTFSHSGMHWVRQAPGKGLEWVAVISYDGSNKYYADSVKGRFTISRDNSKNTLYLQMNSLRAEDTAVYYCAREQPLYDFEYWGQGTLVTVSS
VL: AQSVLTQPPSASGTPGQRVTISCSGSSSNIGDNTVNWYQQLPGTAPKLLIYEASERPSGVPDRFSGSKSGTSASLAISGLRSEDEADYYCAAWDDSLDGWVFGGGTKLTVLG
notes: Matured variant of M047-D08
For the molecule B5, the “fold EC50 reduction” value in test [1] turned out to be 35 fold. The EC50 in test [2] worked out at 0.23 nM.

B6: TPP-1410 (antibody, human IgG1, lambda, V domains shown)
VH: EVQLLESGGGLVQPGGSLRLSCAASGFTFSHSGMHWVRQAPGKGLEWVAVISYDGSNKYYADSVKGRFTISRDNSKNTLYLQMNSLRAEDTAVYYCAREAPGYDFEYWGQGTLVTVSS
VL: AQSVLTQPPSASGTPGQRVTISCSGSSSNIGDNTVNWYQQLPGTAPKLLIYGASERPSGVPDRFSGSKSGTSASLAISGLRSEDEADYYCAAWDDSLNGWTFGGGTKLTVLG
notes: Matured variant of M047-D08
As to B6, the “fold EC50 reduction” value in test [1] was 12 fold. The EC50 in test [2] stood at 0.66 nM.

B7: TPP-1411 (antibody, human IgG1, lambda, V domains shown)
VH: EVQLLESGGGLVQPGGSMRLSCAASGFTFSSSGMHWVRQAPGKGLEWVAVISYDGSNKYYADSVKGRFTISRDNSKNTLYLQMNSLRAEDTAVYYCAREQPGYDFEYWGQGTLVTVSS
VL: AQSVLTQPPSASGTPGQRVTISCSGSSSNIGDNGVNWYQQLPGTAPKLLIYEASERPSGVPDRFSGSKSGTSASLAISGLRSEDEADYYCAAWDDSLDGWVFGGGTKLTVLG
notes: Matured variant of M047-D08
In the case of B7, the “fold EC50 reduction” value in test [1] amounted to 13 fold. In test [2], the EC50 came to 0.61 nM.

B8: M021-H02 (soluble Fab) (Fab, V domains shown)
VH: EVQLLESGGGLVQPGGSLRLSCAASGFTFSNYGIHWVRQAPGKGLEWVAVISYDGSNKYYADSVKGRFTISRDNSKNTLYLQMNSLRAEDTAMYYCARDSSSAEDYWGQGTLVTVSS
VL: QSVLTQPPSASGTPGQRVTISCSGSSSNTGSNTVNWYQQLPGTAPKLLIYRNNQRPSGVPDRFSGSKSGTSASLAISGLRSEDEADYYCETWDSNTRGVVFGGGTKLTVL
notes: as for B1
For B8, the binding result in the test with hFGFR1β-Fc (IIIc), with hFGFR3-Fc (IIIb) and in the test with hFGFR4-Fc was “no binding” each time. In addition, the “ELISA signal to background ratio” value in the test with hFGFR2β-Fc (IIIb), with hFGFR2α-Fc (IIIb) and with mFGFR2β-Fc (IIIb) was above 5 ratio each time.
